The results in this text go back to patent US20170355744A1 (published 2017).

The target in this assay is T1, Untagged Naglu (human, UniProt P54802 24-743).
T1 construct: also called untagged Naglu protein; alpha-N-acetylglucosaminidase
T1 sequence: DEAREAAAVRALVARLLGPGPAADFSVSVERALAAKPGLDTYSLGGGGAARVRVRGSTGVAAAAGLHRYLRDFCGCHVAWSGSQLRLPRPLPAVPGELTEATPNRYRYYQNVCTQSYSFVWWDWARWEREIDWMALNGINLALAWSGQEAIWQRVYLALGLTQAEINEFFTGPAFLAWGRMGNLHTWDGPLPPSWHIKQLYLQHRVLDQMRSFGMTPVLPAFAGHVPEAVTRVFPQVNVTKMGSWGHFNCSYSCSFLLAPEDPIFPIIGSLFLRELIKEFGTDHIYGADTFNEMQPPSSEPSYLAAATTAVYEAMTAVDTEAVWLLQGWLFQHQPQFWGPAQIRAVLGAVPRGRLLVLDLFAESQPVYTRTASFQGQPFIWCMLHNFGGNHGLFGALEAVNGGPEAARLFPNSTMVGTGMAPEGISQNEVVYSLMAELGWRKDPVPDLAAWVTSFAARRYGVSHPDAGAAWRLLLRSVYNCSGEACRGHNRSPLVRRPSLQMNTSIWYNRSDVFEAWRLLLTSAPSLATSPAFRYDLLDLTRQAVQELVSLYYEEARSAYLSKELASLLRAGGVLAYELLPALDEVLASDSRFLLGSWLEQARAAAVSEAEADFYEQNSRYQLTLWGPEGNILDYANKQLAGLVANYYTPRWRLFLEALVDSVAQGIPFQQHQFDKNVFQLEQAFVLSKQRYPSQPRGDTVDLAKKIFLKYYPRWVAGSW
In words: IGF2R competitive binding assay (displacement of biotinylated IGF-II from plate-coated IGFIIR domains 10-13). As to the method: To measure the ability of the Naglu fusion protein constructs to bind to the IGF-II receptor a competitive binding assay is carried out. A fragment of the IGFIIR involved with IGF-II binding (domains 10-13, named protein 1288) is coated onto 96-well plates. Biotinylated IGF-II is incubated with the receptor in the presence of increasing amounts of competitors: either control IGF-II (non-biotinylated), or fusion protein sample (containing an IGF-II-derived GILT epitope tag). Receptor-bound biotinylated IGF-II is detected with streptavidin conjugated to horseradish peroxidase (HRP) and a chemiluminescent HRP substrate. The ability of the fusion protein to inhibit binding of biotinylated IGF-II to the IGFIIR is calculated from inhibition curves and reported as an IC₅₀ value (concentration required to achieve 50% binding inhibition).
For the assay, IGFIIR is coated in a white Reacti-bind plate (Pierce, Cat#437111) at 0.5 μg/well in a volume of 100 μl (69.6 nM/per well) in coating buffer. The plate is sealed and incubated overnight at room temperature. The plate is then washed 3× with wash buffer, blocked with blocking buffer and then washed again 3× with wash buffer (300 μl/well).

B1: fragment of the IGFIIR involved with IGF-II binding (domains 10-13, named protein 1288) (receptor, UniProt P11717 1367-1989, looked up)
chain: TECSFKDGAGNSFDLSSLSRYSDNWEAITGTGDPEHYLINVCKSLAPQAGTEPCPPEAAACLLGGSKPVNLGRVRDGPQWRDGIIVLKYVDGDLCPDGIRKKSTTIRFTCSESQVNSRPMFISAVEDCEYTFAWPTATACPMKSNEHDDCQVTNPSTGHLFDLSSLSGRAGFTAAYSEKGLVYMSICGENENCPPGVGACFGQTRISVGKANKRLRYVDQVLQLVYKDGSPCPSKSGLSYKSVISFVCRPEARPTNRPMLISLDKQTCTLFFSWHTPLACEQATECSVRNGSSIVDLSPLIHRTGGYEAYDESEDDASDTNPDFYINICQPLNPMHGVPCPAGAAVCKVPIDGPPIDIGRVAGPPILNPIANEIYLNFESSTPCLADKHFNYTSLIAFHCKRGVSMGTPKLLRTSECDFVFEWETPVVCPDEVRMDGCTLTDEQLLYSFNLSSLSTSTFKVTRDSRTYSVGVCTFAVGPEQGGCKDGGVCLLSGTKGASFGRLQSMKLDYRHQDEAVVLSYVNGDRCPPETDDGVPCVFPFIFNGKSYEECIIESRAKLWCSTTADYDRDHEWGFCRHSNSYRTSSIIFKCDEDEDIGRPQVFSEVRGCDVTFEWKTKVVCPP
notes: domain: domains 10-13; Coated on the plate at 0.5 ug/well; also called IGF2R
Regarding B1, the binding result is listed as “no binding”.
